In patent US20240108766A1 (Bayer, published 2024):
Substitutions are numbered along the chain they refer to.

Legend:
[1] = molecular target: T1, human LRRC15 expressed on cells (human, UniProt Q8TF66 22-581); assay: flow cytometry, transfected HEK293
T1 construct: whole, on cells; On HEK293 cells transfected with LRRC15/ZsGreen1 (Retrogenix), on HT29 cells transfected with human LRRC15, and endogenous on Saos-2; also called LRRC15/ZsGreen1 transfected HEK293 cells; HT29-LRRC15
T1 sequence (looked up): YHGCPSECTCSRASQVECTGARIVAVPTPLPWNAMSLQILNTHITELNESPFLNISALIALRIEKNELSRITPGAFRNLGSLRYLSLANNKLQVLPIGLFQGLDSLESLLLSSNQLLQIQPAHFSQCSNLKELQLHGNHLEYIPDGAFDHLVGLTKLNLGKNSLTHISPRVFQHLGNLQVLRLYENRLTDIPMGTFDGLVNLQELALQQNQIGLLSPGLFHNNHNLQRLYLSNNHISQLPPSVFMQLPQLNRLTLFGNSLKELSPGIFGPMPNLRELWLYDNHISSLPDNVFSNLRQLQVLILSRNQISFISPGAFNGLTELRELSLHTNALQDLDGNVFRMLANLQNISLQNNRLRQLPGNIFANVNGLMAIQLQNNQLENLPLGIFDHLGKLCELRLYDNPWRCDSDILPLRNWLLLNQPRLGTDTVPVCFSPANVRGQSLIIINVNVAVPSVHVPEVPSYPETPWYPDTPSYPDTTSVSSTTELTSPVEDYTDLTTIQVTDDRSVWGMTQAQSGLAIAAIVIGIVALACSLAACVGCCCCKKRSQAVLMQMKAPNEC

[2] = molecular target: T1, human LRRC15 expressed on cells; assay: flow cytometry, transfected HEK293; TPP-12942, first of the three values listed 'respectively'
Excerpt: (§1) Plotted is the Median AF647 Fluorescence versus antibody concentration. Background binding of each antibody to the cells (i.e. binding to ZsGreen1-only transfectants) is subtracted from the LRRC15 transfected cells at each antibody dose.
(§2) Shown is the median fluorescence of AF647 labeled secondary antibody versus antibody concentration as determined by flow cytometry. Background binding of each antibody to the cells (i.e. binding to ZsGreen1 only transfectants) can be subtracted from the LRRC15 transfected cells for each antibody concentration.

[3] = molecular target: T1, human LRRC15 expressed on cells; assay: flow cytometry, transfected HEK293; remark: listed apart in the source
[4] = molecular target: T2, Ephrin type-B receptor 6 (EPHB6) on transfected HEK293 cells (human, UniProt O15197 32-1021); assay: flow cytometry, live transfected HEK293 cells
T2 construct: whole, on cells; also called EPHB6/ZsGreen1
T2 sequence (looked up): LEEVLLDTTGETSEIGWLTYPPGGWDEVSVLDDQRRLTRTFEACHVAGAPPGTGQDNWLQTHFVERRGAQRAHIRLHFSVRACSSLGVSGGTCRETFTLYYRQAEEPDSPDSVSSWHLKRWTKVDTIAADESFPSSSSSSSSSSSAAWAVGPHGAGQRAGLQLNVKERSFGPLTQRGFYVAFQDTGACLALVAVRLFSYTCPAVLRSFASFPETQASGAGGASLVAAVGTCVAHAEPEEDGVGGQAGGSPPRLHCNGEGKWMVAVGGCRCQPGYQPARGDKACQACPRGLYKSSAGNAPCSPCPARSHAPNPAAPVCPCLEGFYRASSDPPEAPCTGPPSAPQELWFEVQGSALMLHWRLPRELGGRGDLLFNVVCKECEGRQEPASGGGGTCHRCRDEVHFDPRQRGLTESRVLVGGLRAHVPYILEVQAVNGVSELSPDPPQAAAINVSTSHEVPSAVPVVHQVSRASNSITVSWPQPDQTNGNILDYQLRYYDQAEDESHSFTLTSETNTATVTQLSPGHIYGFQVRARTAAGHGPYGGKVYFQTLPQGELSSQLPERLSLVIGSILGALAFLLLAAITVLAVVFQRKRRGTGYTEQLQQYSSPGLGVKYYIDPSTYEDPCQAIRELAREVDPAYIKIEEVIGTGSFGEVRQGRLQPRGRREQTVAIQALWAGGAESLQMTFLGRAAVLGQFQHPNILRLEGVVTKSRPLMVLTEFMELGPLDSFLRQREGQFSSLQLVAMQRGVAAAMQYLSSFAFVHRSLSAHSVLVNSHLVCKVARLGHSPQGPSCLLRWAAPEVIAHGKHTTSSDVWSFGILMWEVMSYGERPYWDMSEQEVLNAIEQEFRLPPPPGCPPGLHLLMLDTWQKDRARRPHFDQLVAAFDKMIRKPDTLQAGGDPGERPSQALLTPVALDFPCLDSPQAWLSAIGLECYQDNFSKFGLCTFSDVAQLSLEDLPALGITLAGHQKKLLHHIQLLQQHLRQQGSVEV

[5] = molecular target: T1, human LRRC15 expressed on cells; assay: flow cytometry, transfected HEK293; TPP-17078, second of the three values listed 'respectively'
Excerpt: as §1, §2

[6] = molecular target: T1, human LRRC15 expressed on cells; assay: flow cytometry, transfected HEK293; remark: listed apart in the source
Excerpt: Shown is the Median Fluorescence of AF647-labeled secondary antibody versus antibody concentration as determined by flow cytometry.

[7] = molecular target: T3, Cathepsin S (CTSS) on transfected HEK293 cells (human, UniProt P25774 115-331); assay: flow cytometry, live transfected HEK293 cells
T3 construct: whole, on cells; also called CTSS/ZsGreen1
T3 sequence (P25774 115-331): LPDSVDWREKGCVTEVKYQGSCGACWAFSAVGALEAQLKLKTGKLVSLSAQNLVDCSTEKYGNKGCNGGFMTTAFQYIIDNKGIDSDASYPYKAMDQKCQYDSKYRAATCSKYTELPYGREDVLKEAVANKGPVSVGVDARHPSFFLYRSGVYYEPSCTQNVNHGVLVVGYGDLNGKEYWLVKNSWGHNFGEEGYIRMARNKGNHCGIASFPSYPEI

B1: TPP-12942 (antibody, human IgG1, kappa, V domains shown)
VH: EVQLVQSGAEVKKPGASVKVSCKASGYKFSSYWIEWVKQAPGQGLEWIGEILPGSDTTNYNEKFKDRATFTSDTSINTAYMELSRLRSDDTAVYYCARDRGNYRAWFGYWGQGTLVTVSS
VL: DIQMTQSPSSLSASVGDRVTITCRASQDISNYLNWYQQKPGGAVKFLIYYTSRLHSGVPSRFSGSGSGTDYTLTISSLQPEDFATYFCQQGEALPWTFGGGTKVEIKR
notes: Prior art humanized IgG1 kappa antibody, used as comparator; also called huM25; huM25-hIgG1Kappa
[1]
  EC50: 1.4 µg/mL
[2]
  EC50: 0.2 µg/mL

B2: TPP-17421 (antibody, human IgG1, kappa, V domains shown)
VH: B1 VH with T57W, G108Q
VL: B1 VL with D28S, N31S, V44P, T51A, R53S, H55Q, F87Y, E92L, A93E
notes: also called 438H-M306-C11-hIgG1Kappa
[3]
  EC50: 0.42 µg/mL
[4]
  binding result: no binding (tested: up to 62.5 µg/ml)

B3: TPP-17078 (antibody, human IgG1, kappa, V domains shown)
VH: B1 VH
VL: B1 VL with D28S, N31S, V44P, T51A, R53S, H55Q, F87Y, E92F, A93S
notes: also called 438H-M308-H05-hIgGkappa
[5]
  EC50: 0.15 µg/mL

B4: TPP-14389 (antibody, human IgG1, kappa, V domains shown)
VH: EVQLLESGGGLVQPGGSLRLSCAASGFTFSGYMMSWVRQAPGKGLEWVSGIYPSPGYTYYADSVKGRFTISRDNSKNTLYLQMNSLRAEDTAVYYCAREKASDLFGSYSEALDYWGQGTLVTVSS
VL: DIQMTQSPDSLSASVGDRVTITCRASQDVGSWLAWYQQKPGKAPKLLIFAASSLESGIPSRFSGSGSGTDFTLTISSLQPEDFATYYCQQANGFPLTFGGGTKVEIKR
notes: also called 13612-rec02-hIgG1Kappa
[6]
  EC50: 0.26 µg/mL
[7]
  binding result: no binding (tested: up to 62.5 µg/ml)
